Assay results published in article doi:10.1101/2021.12.01.470822.

Target: ABD1 of PLS2 (human) (UniProt P13796)
Test: fluorescence polarisation

ABD1 of PLS2 (human), sequence (P13796 98-375): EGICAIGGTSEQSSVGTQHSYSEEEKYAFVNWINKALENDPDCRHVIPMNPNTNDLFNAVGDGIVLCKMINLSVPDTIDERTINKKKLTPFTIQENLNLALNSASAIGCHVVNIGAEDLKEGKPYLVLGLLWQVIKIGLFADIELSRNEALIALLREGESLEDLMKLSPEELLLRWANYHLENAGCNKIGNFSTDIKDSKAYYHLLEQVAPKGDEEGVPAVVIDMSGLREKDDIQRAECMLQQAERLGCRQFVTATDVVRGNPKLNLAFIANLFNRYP

Substance: ABD2 of PLS2 with S406E (from UniProt P13796 1-627) (domain or fragment)
- Kd: 2000 nM
